Test results published in the supplement of paper PMC10567573.

B1: ZNF193 (parent)
chain: QKRYHCKECGKVFSQSAGLIQHQR

Variants of: B1
Experiment: protein stability index of a GFP-peptide fusion (GPS, HEK-293T) (PSI 1-6); higher = more stable
Conditions: c terminus: a fixed tail appended
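Note: lentivirally expressed fusions sorted by FACS into six bins by GFP to DsRed ratio, PSI derived from sequencing read proportions per bin multiplied by bin number.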

Point of comparison: QKRYHCKECGKVYSQSAGLIQHQR [F13Y], protein stability index 1.99. Against it:
- QKRYHCKECGKVFSDSAGLIQHQR [Q15D] — higher, 4.51
- QKRYHCKECGKVFSESAGLIQHQR [Q15E] — higher, 3.85
- QKRYHCKECGKVFSKSAGLIQHQR [Q15K] — higher, 3.45
- QKRYHCKECGKVFSCSAGLIQHQR [Q15C] — higher, 3.93
- QKRYHCKECGKVFSISAGLIQHQR [Q15I] — lower, 1.92
- QKRYHCKECGKVFSFSAGLIQHQR [Q15F] — higher, 2.28
- QKRYHCKECGKVFSRSAGLIQHQR [Q15R] — higher, 3.08
- QKRYHCKECGKVFSGSAGLIQHQR [Q15G] — higher, 2.8
- QKRYHCKECGKVFSWSAGLIQHQR [Q15W] — higher, 2.06
- QKRYHCKECGKVFSVSAGLIQHQR [Q15V] — higher, 2.16
- QKRYHCKECGKVFSNSAGLIQHQR [Q15N] — higher, 4.24
- QKRYHCKECGKVFSPSAGLIQHQR [Q15P] — lower, 1.58
- QKRYHCKECGKVFSTSAGLIQHQR [Q15T] — higher, 4.01
- QKRYHCKECGKVFSYSAGLIQHQR [Q15Y] — higher, 2.73
- QKRYHCKECGKVFSASAGLIQHQR [Q15A] — higher, 2.83
- QKRYHCKECGKVFSMSAGLIQHQR [Q15M] — higher, 2.06
- QKRYHCKECGKVFSHSAGLIQHQR [Q15H] — higher, 2.91
- QKRYHCKECGKVFSLSAGLIQHQR [Q15L] — the same, 1.99
- QKRYHCKECGKVFSSSAGLIQHQR [Q15S] — higher, 4.11
- QKRYHCKECGKVRSQSAGLIQHQR [F13R] — higher, 2.17
- QKRYHCKECGKVESQSAGLIQHQR [F13E] — higher, 2.42
- QKRYHCKECGKVTSQSAGLIQHQR [F13T] — lower, 1.91
- QKRYHCKECGKVWSQSAGLIQHQR [F13W] — higher, 2.03
- QKRYHCKECGKVMSQSAGLIQHQR [F13M] — lower, 1.82
- QKRYHCKECGKVDSQSAGLIQHQR [F13D] — lower, 1.72
- QKRYHCKECGKVKSQSAGLIQHQR [F13K] — higher, 2.25
- QKRYHCKECGKVVSQSAGLIQHQR [F13V] — higher, 2.05
- QKRYHCKECGKVLSQSAGLIQHQR [F13L] — higher, 2.5
- QKRYHCKECGKVNSQSAGLIQHQR [F13N] — lower, 1.67
- QKRYHCKECGKVCSQSAGLIQHQR [F13C] — higher, 2.15
- QKRYHCKECGKVASQSAGLIQHQR [F13A] — lower, 1.81
- QKRYHCKECGKVHSQSAGLIQHQR [F13H] — higher, 3.12
- QKRYHCKECGKVGSQSAGLIQHQR [F13G] — lower, 1.87
- QKRYHCKECGKVQSQSAGLIQHQR [F13Q] — higher, 2.29
- QKRYHCKECGKVSSQSAGLIQHQR [F13S] — higher, 2.12
- QKRYHCKECGKVPSQSAGLIQHQR [F13P] — higher, 2.39
- QKRYHCKECGKVISQSAGLIQHQR [F13I] — higher, 2.42
- QKRYHCKECPKVFSQSAGLIQHQR [G10P] — higher, 2.33
- QKRYHCKECIKVFSQSAGLIQHQR [G10I] — lower, 1.51
- QKRYHCKECYKVFSQSAGLIQHQR [G10Y] — lower, 1.67
- QKRYHCKECNKVFSQSAGLIQHQR [G10N] — higher, 2.5
- QKRYHCKECEKVFSQSAGLIQHQR [G10E] — higher, 2.01
- QKRYHCKECLKVFSQSAGLIQHQR [G10L] — lower, 1.95
- QKRYHCKECCKVFSQSAGLIQHQR [G10C] — lower, 1.83
- QKRYHCKECDKVFSQSAGLIQHQR [G10D] — lower, 1.79
- QKRYHCKECSKVFSQSAGLIQHQR [G10S] — higher, 2.11
- QKRYHCKECRKVFSQSAGLIQHQR [G10R] — higher, 2
- QKRYHCKECVKVFSQSAGLIQHQR [G10V] — lower, 1.46
- QKRYHCKECQKVFSQSAGLIQHQR [G10Q] — higher, 2.29
- QKRYHCKECFKVFSQSAGLIQHQR [G10F] — higher, 2.03
- QKRYHCKECMKVFSQSAGLIQHQR [G10M] — higher, 2.12
- QKRYHCKECKKVFSQSAGLIQHQR [G10K] — lower, 1.98
- QKRYHCKECHKVFSQSAGLIQHQR [G10H] — lower, 1.84
- QKRYHCKECTKVFSQSAGLIQHQR [G10T] — lower, 1.83
- QKRYHCKECWKVFSQSAGLIQHQR [G10W] — higher, 2.02
- QKRYHCKECGKCFSQSAGLIQHQR [V12C] — higher, 2.81
- QKRYHCKECGKWFSQSAGLIQHQR [V12W] — higher, 2.82
- QKRYHCKECGKSFSQSAGLIQHQR [V12S] — higher, 3.27
- QKRYHCKECGKFFSQSAGLIQHQR [V12F] — higher, 2.67
- QKRYHCKECGKDFSQSAGLIQHQR [V12D] — higher, 3.27
- QKRYHCKECGKHFSQSAGLIQHQR [V12H] — higher, 2.82
- QKRYHCKECGKNFSQSAGLIQHQR [V12N] — higher, 2.78
- QKRYHCKECGKMFSQSAGLIQHQR [V12M] — higher, 2.6
- QKRYHCKECGKRFSQSAGLIQHQR [V12R] — higher, 3.33
- QKRYHCKECGKQFSQSAGLIQHQR [V12Q] — higher, 2.82
- QKRYHCKECGKKFSQSAGLIQHQR [V12K] — higher, 3.2
- QKRYHCKECGKGFSQSAGLIQHQR [V12G] — higher, 2.77
- QKRYHCKECGKPFSQSAGLIQHQR [V12P] — higher, 2.17
- QKRYHCKECGKTFSQSAGLIQHQR [V12T] — higher, 3.52
- QKRYHCKECGKEFSQSAGLIQHQR [V12E] — higher, 3.23
- QKRYHCKECGKLFSQSAGLIQHQR [V12L] — higher, 2.25
- QKRYHCKECGKIFSQSAGLIQHQR [V12I] — higher, 2.76
- QKRYHCKECGKAFSQSAGLIQHQR [V12A] — higher, 2.43
- QKRYHCKECGKYFSQSAGLIQHQR [V12Y] — higher, 2.75
- QKRYHCKECGKVFCQSAGLIQHQR [S14C] — higher, 2.58
- QKRYHCKECGKVFEQSAGLIQHQR [S14E] — higher, 3.77
- QKRYHCKECGKVFHQSAGLIQHQR [S14H] — higher, 2.98
- QKRYHCKECGKVFRQSAGLIQHQR [S14R] — higher, 3.03
- QKRYHCKECGKVFPQSAGLIQHQR [S14P] — higher, 2.72
- QKRYHCKECGKVFDQSAGLIQHQR [S14D] — higher, 3.47
- QKRYHCKECGKVFQQSAGLIQHQR [S14Q] — higher, 2.86
- QKRYHCKECGKVFVQSAGLIQHQR [S14V] — higher, 2.53
- QKRYHCKECGKVFLQSAGLIQHQR [S14L] — higher, 3.16
- QKRYHCKECGKVFWQSAGLIQHQR [S14W] — higher, 2.08
- QKRYHCKECGKVFKQSAGLIQHQR [S14K] — higher, 3.23
- QKRYHCKECGKVFTQSAGLIQHQR [S14T] — higher, 3.06
- QKRYHCKECGKVFFQSAGLIQHQR [S14F] — higher, 2.68
- QKRYHCKECGKVFIQSAGLIQHQR [S14I] — higher, 2.64
- QKRYHCKECGKVFYQSAGLIQHQR [S14Y] — higher, 3.25
- QKRYHCKECGKVFGQSAGLIQHQR [S14G] — higher, 2.54
- QKRYHCKECGKVFAQSAGLIQHQR [S14A] — higher, 3.47
- QKRYHCKECGKVFMQSAGLIQHQR [S14M] — higher, 2.93
- QKRYHCKECGKVFNQSAGLIQHQR [S14N] — higher, 2.78
